The target of this assay is T1, CEACAM5-D2-312* (human, UniProt P06731 35-311).
T1 sequence (looked up): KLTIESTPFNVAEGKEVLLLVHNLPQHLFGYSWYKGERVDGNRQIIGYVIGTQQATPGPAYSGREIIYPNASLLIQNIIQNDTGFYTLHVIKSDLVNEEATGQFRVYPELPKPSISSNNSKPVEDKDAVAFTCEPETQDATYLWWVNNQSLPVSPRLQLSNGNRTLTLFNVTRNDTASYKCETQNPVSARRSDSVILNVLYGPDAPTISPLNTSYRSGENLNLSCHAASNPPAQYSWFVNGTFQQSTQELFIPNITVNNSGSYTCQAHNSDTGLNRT
Kind of assay: ELISA on truncated CEACAM5 from transfected-cell supernatant. The method, then: Different truncated C-terminus CEACAM6 gene constructs were designed as illustrated in FIG. 13. […] Different truncated C-terminus CEACAM5 gene constructs were designed as illustrated in FIG. 15. The procedure for the expression of the truncated C-terminus constructs was the same as to the method described above. All deletions were transfected into HEK293T cells, harvest the cell pellet and/or supernatant after 48-72 hours. Supernatant binding activity was quantitated by ELISA.

B1: NEO-201 (antibody, human IgG1, kappa, V domains shown)
VH: QVQLVQSGAEVKKPGASVKVSCKASGYTFTDYAMHWVRQAPGQRLEWMGLISTYSGDTKYNQNFQGRVTMTVDKSASTAYMELSSLRSEDTAVYYCARGDYSGSRYWFAYWGQGTLVTVSS
VL: DIQMTQSPSSLSASVGDRVTITCQASENIYGALNWYQRKPGKSPKLLIYGASNLATGMPSRFSGSGSGTDYTFTISSLQPEDIATYYCQQVLSSPYTFGGGTKLEIKR
notes: also called H16C3-Abb*
With B1, the binding result was “no binding”.
